The term Kd denotes the free concentration of one partner at which half of the binding sites on the other are occupied at equilibrium, for simple one-to-one binding.

The results in this text go back to patent US20250003978A1, “DIAGNOSIS AND TREATMENT OF ANTI-PF4 INDUCED THROMBOCYTOPENIA” (The Regents of the University of California, priority 2021, published 2025).

Experiment [1] addresses T1, soluble integrin αIIbβ3 (Homo sapiens, UniProt P05106+P08514).
T1 construct: Soluble recombinant αIIbβ3 or αvβ3 (AgroBio, 1 μg/ml); purchased AgroBio
Nature of the experiment: ELISA-type integrin binding assay, soluble αIIbβ3. To be noted: 1 mM Mn2+. The procedure: (§1) FIG. 2. PF4 specifically binds to soluble αIIbβ3 and αvβ3 in ELISA-type binding assays in 1 mM Mn^2+. FIG. 2a PF4 binds to soluble integrins in 1 mM Mn^2+ in ELISA-type binding assays. PF4 was immobilized to wells of 96-well microtiter plate and incubated with soluble αIIbβ3 or αvβ3 (1 μg/ml) in Tyrode-HEPES buffer with 1 mM Mn^2+ (to activate integrins) for 1 hr at room temperature and bound integrins were quantified using anti-β3 (mAb AV10) and HRP-conjugated anti-mouse IgG. Data are shown as means+/−SD in triplicate experiments. […] FIG. 2b Binding of authentic PF4 (Invitrogen) to integrins. Binding assays were performed as described in (a). PF4 (6.25 μg/ml) was used. Data are shown as means+/−SD in triplicate experiments. […] FIGS. 2c and d The binding of PF4 to integrins was suppressed by the distintegrin domain of ADAM15 fused to GST (ADAM15 disintegrin), but not by control GST. To establish the specificity of PF4 binding to soluble integrins αIIbβ3 (b) and αvβ3 (c), if ADAM15 disintegrin, which is known to bind to integrins αIIbβ3 (22) and αvβ3 (21), suppress the binding. […] Data are shown as means+/−SD in triplicate experiments. […] Bound integrins were quantified as described in (a). […]
(§2) Wells of 96-well microtiter plates were coated with PF4. […] Bound αIIbβ3 or αvβ3 was measured using anti-integrin β3 mAb (AV-10) followed by HRP-conjugated goat anti-mouse IgG and peroxidase substrates.

Experiment [2] concerns the target T2, soluble integrin αvβ3 (Homo sapiens, UniProt P05106+P06756).
T2 construct: Soluble recombinant αIIbβ3 or αvβ3 (AgroBio, 1 μg/ml); purchased AgroBio
In words: ELISA-type integrin binding assay, soluble αvβ3. To be noted: competitor 100 μg/ml; immobilized PF4 (12.5 g/ml); 1 mM Mn2+. The method, then: as §1, §2
A general note: In an ELISA, binding on a coated surface is turned into a signal by an enzyme label.

Experiment [3] concerns the target T3, soluble recombinant integrin αIIbβ3 (UniProt P08514 32-993; P05106 27-718).
T3 construct: Bought soluble heterodimer, used at 1 µg/ml; also called soluble αIIbβ3
Nature of the experiment: ELISA-type binding: immobilized PF4, soluble αIIbβ3 1 µg/ml, 1 mM Mn2+, detection with anti-β3 mAb AV10.
Procedure: (§4) Data are shown as means+/−SD in triplicate experiments. […] Binding assays were performed as described in (a). […] Data are shown as means+/−SD in triplicate experiments. […] Data are shown as means+/−SD in triplicate experiments. […] Assays were performed as described in (a). Data is shown as means+/−SD in triplicate experiments. […] Wells were incubated with soluble integrins (1 μg/ml) in Tyrode-HEPES buffer with different cations (1 mM). Bound integrins were quantified as described in (a). Data are shown as means+/−SD in triplicate experiments.

In experiment [4] the target is T4, soluble recombinant integrin αvβ3 (UniProt P06756 31-992; P05106 27-718).
T4 construct: Bought soluble heterodimer, used at 1 µg/ml; also called soluble αvβ3
In words: ELISA-type binding: immobilized PF4, soluble αvβ3 1 µg/ml, 1 mM Mn2+, detection with anti-β3 mAb AV10.
Procedure: as §4

In experiment [5] the target is T1, soluble integrin αIIbβ3. In words: ELISA-type integrin activation assay, soluble αIIbβ3 binding to immobilized γC390-411. The experiment is classed as biochemical. The following applies: for ability of PF4 mutant to mediate RTO/PF4-induced αIIbβ3 activation: PF4 mutant in complex with anti-PF4 RTO, 1 mM Ca2+. The procedure: FIG. 3. […] FIG. 3a. Anti-PF4 (RTO) markedly enhances PF4-induced activation of soluble αIIbβ3 in 1 mM Ca^2+ in ELISA-type activation assays in a dose-dependent manner at physiological concentrations of PF4 (below 1 μg/ml). The fibrinogen fragments γC390-411 (a specific ligand for αIIbβ3) was immobilized to wells of 96-well microtiter plate. […] Anti-PF4 (RTO or KKO, 10 μg/ml) were added (without heparin). After washing, bound integrins were quantified using anti-β3 (mAb AV10) and HRP-conjugated anti-mouse IgG. Mouse IgG (10 μg/ml) and no antibody were used as negative controls. Data are shown as means+/−SD in triplicate experiments. FIG. 3b. […] Commercial PF4 was used instead of our own PF4 preparation. Activation assays were performed as described in a. […] FIG. 3c. Point mutations in the predicted integrin-binding site (site 2) of PF4 suppressed activation of αIIbβ3 by the anti-PF4/PF4 complex. […] FIG. 3d. The R20E/R22E/K46E/R49E mutant suppressed integrin activation by the anti-PF4/PF4 complex. WT PF4 ([…]) and excess PF4 mutant (5 or 10 μg/ml) were used.
(§3) Wells of 96-well microtiter plates were coated with γC390-411 (a specific ligand for αIIbβ3) or γC399tr (a specific ligand for αvβ3). Remaining protein binding sites were blocked with BSA. Soluble recombinant αIIbβ3 or αvβ3 (AgroBio, 1 μg/ml) was pre-incubated with chemokines PF4 or anti-PF4/PF4 for 10 min at room temperature and was added to the wells and incubated in HEPES-Tyrodes buffer with 1 mM CaCl2 for 1 h at room temperature. After unbound αIIbβ3 or αvβ3 was removed by rinsing the wells with binding buffer, bound αIIbβ3 or αvβ3 was measured using anti-integrin B3 mAb (AV-10) followed by HRP-conjugated goat anti-mouse IgG and peroxidase substrates.

In experiment [6] the target is T2, soluble integrin αvβ3. Nature of the experiment: ELISA-type integrin activation assay, soluble αvβ3 binding to immobilized γC399tr. The experiment is classed as biochemical. The following applies: for ability of PF4 mutant to mediate RTO/PF4-induced αvβ3 activation: PF4 mutant in complex with anti-PF4 RTO, 1 mM Ca2+. The method, then: FIG. 4. […] FIG. 4a. Anti-PF4 (RTO) markedly enhances PF4-induced activation of soluble αvβ3 in 1 mM Ca^2+ in ELISA-type activation assays. Fibrinogen fragment γC399tr (151-399 segment of fibrinogen γ chain, a specific ligand for αvβ3) was immobilized to wells of 96-well microtiter plate. […] Anti-PF4 (RTO or KKO, 10 μg/ml) were added (without heparin). After washing, bound integrins were quantified using anti-β3 (mAb AV10) and HRP-conjugated anti-mouse IgG. Mouse IgG (10 μg/ml) and no antibody were used as negative controls. […] FIG. 4b. […] Commercial PF4 was used instead of our own PF4 preparation. Activation assays were performed as described in a. […] FIG. 4c. Point mutations in the predicted integrin-binding site (site 2) of PF4 suppressed activation of αvβ3 by the anti-PF4/PF4 complex. […] FIG. 4d. The R20E/R22E/K46E/R49E mutant suppressed integrin activation by the RTO/PF4 complex. WT PF4 (0.5 μg/ml) and excess PF4 mutant (5 or 10 μg/ml) were used.
as §3

Numbering of substitutions follows the chain as printed. Names may count otherwise. Positions of bridges follow the written chain, without caps; N, C: chain ends. Non-standard residues stand in square brackets, D forms with d. Residues, ends and D or L forms follow the SMILES beside them. hArg = N=C(N)NCCCC[C@H](N)C(=O)O; Mpa = O=C(O)CCS

T2 sequence (P06756 31-992 limits assumed): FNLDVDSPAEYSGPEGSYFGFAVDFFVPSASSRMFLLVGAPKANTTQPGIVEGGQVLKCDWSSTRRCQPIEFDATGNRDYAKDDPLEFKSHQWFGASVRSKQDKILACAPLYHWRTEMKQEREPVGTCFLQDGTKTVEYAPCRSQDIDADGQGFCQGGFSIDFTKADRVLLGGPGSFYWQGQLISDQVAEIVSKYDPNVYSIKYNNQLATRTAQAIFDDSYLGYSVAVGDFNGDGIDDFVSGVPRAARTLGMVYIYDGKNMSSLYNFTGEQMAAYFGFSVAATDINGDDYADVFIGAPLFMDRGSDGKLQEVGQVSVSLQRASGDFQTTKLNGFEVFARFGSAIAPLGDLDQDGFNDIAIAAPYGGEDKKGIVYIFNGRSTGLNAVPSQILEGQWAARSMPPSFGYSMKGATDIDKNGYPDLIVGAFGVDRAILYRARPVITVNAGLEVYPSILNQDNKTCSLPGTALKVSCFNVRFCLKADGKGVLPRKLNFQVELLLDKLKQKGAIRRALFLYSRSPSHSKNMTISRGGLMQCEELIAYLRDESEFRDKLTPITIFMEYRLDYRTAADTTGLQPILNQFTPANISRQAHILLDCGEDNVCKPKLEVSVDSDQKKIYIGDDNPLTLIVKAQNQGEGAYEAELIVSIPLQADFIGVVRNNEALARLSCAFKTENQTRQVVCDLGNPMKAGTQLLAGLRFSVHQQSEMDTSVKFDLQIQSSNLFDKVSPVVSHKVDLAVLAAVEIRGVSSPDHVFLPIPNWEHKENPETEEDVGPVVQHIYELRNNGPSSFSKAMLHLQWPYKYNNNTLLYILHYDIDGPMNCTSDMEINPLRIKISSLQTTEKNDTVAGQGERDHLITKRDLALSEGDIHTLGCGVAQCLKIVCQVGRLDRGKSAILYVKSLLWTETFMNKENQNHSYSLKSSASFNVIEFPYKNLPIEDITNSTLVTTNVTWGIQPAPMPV
T2 sequence (P05106 27-718 limits assumed): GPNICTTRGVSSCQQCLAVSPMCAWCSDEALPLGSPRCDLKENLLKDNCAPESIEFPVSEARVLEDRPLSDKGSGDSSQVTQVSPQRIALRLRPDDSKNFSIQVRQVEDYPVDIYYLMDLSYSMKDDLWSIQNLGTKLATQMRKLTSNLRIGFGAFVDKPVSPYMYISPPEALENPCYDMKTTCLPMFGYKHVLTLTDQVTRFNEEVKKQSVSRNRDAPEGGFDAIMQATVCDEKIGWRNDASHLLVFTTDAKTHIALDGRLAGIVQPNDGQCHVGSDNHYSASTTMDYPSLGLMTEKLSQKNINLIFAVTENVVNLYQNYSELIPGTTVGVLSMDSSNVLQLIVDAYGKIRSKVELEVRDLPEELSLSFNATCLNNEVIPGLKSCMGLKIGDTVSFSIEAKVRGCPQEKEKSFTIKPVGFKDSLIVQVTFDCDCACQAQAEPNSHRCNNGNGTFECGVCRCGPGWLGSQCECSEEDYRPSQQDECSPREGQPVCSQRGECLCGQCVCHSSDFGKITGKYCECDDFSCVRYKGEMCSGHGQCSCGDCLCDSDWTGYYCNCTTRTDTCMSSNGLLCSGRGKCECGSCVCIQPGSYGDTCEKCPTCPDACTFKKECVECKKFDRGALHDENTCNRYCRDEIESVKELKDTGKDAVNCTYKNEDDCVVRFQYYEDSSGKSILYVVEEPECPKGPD
T4 sequence (P06756 31-992, chain 1 of 2): as the sequence (P06756 31-992 limits assumed) above
T4 sequence (P05106 27-718, chain 2 of 2): as the sequence (P05106 27-718 limits assumed) above

Consider `N=C(N)NCCCC[C@@H]1NC(=O)CCSSC[C@@H](C(N)=O)NC(=O)[C@@H]2CCCN2C(=O)[C@H](Cc2c[nH]c3ccccc23)NC(=O)[C@H](CC(=O)O)NC(=O)CNC1=O` [eptifibatide] ([Mpa][hArg]GDWPC-NH2; disulfide 1-7), for which the “effect of integrin antagonists on PF4 binding to αIIbβ3” value at soluble integrin αIIbβ3 [1] (PF4 coated at 50 μg/ml, mAb 7E3 10 μg/ml, eptifibatide 0.65 μg/ml, cyclic RGDfV 10 μM) is recorded as “weak inhibition”.
“ADAM15 disintegrin: disintegrin domain of ADAM15 fused to GST, known to bind integrins αIIbβ3 and αvβ3”: the “suppression of αvβ3 binding to immobilized PF4” value with soluble integrin αvβ3 [2] is on record as “suppressed”. Further, the “suppression of αIIbβ3 binding to immobilized PF4” value with soluble integrin αIIbβ3 [1] (competitor 100 μg/ml, immobilized PF4 (12.5 g/ml)) is “suppressed”.

B1: PF4 (platelet factor 4, chemokine CXCL4), preparation generated in the inventors' lab (ligand)
chain: EAEEDGDLQCLCVKTTSQVRPRHITSLEVIKAGPHCPTAQLIATLKNGRKICLDLQAPLYKKIIKKLLES
notes: Made in E. coli BL21 from pET28a as inclusion bodies, purified on Ni-NTA under denaturing conditions and renatured; also called WT PF4; wild-type PF4; not shown: Vector-derived N-terminal tag and leader of pET28a (His tag used for Ni-NTA purification, BamHI/EcoRI insert)
Turning to B1, the dissociation constant Kd in experiment [3] and in experiment [4] was < 1 µg/mL each time.

B2: R20E/R22E/K46E/R49E: PF4 (SEQ ID NO: 1) quadruple mutant defective in site 2 binding; dominant-negative antagonist (protein)
chain: B1 chain with R20E, R22E, K46E, R49E
modifications: Description ofsequence: PF4 sp|P02776|32-101
notes: dominant-negative antagonist
Consider B2, for which the “ability of PF4 mutant to mediate RTO/PF4-induced αIIbβ3 activation” value with soluble integrin αIIbβ3 [5] is reported as “most effectively reduced”. For the same molecule, in the experiment with soluble integrin αIIbβ3 [5] (WT PF4 (0.5 g/ml) and excess PF4 mutant (5 or 10 μg/ml), RTO), the “suppression of αIIbβ3 activation by the anti-PF4/PF4 complex (antagonist effect)” value is reported as “suppressed”. The “ability of PF4 mutant to mediate RTO/PF4-induced αvβ3 activation” value with soluble integrin αvβ3 [6] is “most effectively reduced”. Moreover, in the experiment with soluble integrin αvβ3 [6] (WT PF4 (0.5 μg/ml) and excess PF4 mutant (5 or 10 μg/ml), RTO), the “suppression of αvβ3 activation by the RTO/PF4 complex (antagonist effect)” value is listed as “suppressed”.

B3: R20E/R22E: PF4 (SEQ ID NO: 1) double mutant, Arg20 and Arg22 mutated to Glu (protein)
chain: B1 chain with R20E, R22E
modifications: Description ofsequence: PF4 sp|P02776|32-101
For B3, in the experiment with soluble integrin αIIbβ3 [5], the “ability of PF4 mutant to mediate RTO/PF4-induced αIIbβ3 activation” value is “reduced ability”. Moreover, the “ability of PF4 mutant to mediate RTO/PF4-induced αvβ3 activation” value with soluble integrin αvβ3 [6] is recorded as “reduced ability”.

B4: K46E/R49E: PF4 (SEQ ID NO: 1) double mutant, Lys46 and Arg49 mutated to Glu (protein)
chain: B1 chain with K46E, R49E
modifications: Description ofsequence: PF4 sp|P02776|32-101
With B4, the “ability of PF4 mutant to mediate RTO/PF4-induced αIIbβ3 activation” value with soluble integrin αIIbβ3 [5] is “reduced ability”. For the same molecule, in the experiment with soluble integrin αvβ3 [6], the “ability of PF4 mutant to mediate RTO/PF4-induced αvβ3 activation” value is listed as “reduced ability”.
